Data reported in the supplement of paper PMC10567573.

B1: HNF4A (parent)
chain: RFSRQCVVDKDKRNQCRYCRLKKC

Variants of: B1
Assay: protein stability index of a GFP-peptide fusion (GPS, HEK-293T) (PSI 1-6); higher = more stable
Conditions: c terminus: a fixed tail appended
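Further: lentivirally expressed fusions sorted by FACS into six bins by GFP to DsRed ratio, PSI derived from sequencing read proportions per bin multiplied by bin number.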

Protein stability index of substitutions, site by site:
Y18: M 3.13, S 3.69, I 3.54, L 2.19, A 2.2, P 3, E 3.41, G 3.04, H 3.64, C 3.61, F 2.63, T 3.2, R 3.36
K12: I 2.54, C 2.07, N 2.41, A 1.51, F 2.25, Y 2.25, P 2.76, S 2, D 2.13, M 1.97, T 2.85, V 1.99
Q15: G 2.37, C 2.8, F 2.12, A 2.47, T 2.68, D 2.89, Y 2.48, M 2.48, K 2.85, E 2.34, R 2.73, S 2.79, P 2.21
R17: A 2.77, V 2.21, G 3.16, P 2.9, S 2.4, M 2.79, C 2.29, H 2.83, D 3.29, L 1.84, E 3.78, I 2.9, Y 2.21, T 2.69, K 2.54
C24: T 3.08, W 1.81, K 2.62, L 2.39, I 2.93, A 3.01, S 2.5, H 2.77, V 2.34, N 2.89, G 2.41, Y 2.77, E 1.01
S3: V 2.17, F 1.91, Y 2.95, G 2.34, I 2.77, A 2.59, N 2.76, R 3.1, W 1.52, T 2.67, D 2.58, E 3.07, M 2.33, Q 2.5, P 3.26, H 2.7
D11: A 2.28, E 2.19, N 2.4, H 2.97, Q 2.63, R 2.65, Y 2.45, C 3.51, V 2.37, M 2.65, T 2.32, G 2.55, K 2.4, P 2.9, I 2.41
L21: R 4.08, N 3.33, I 3.22, M 3.61, D 3.35, T 2.93, V 2.31, H 3.41, W 2.94, K 4.07, S 3.36, F 2.86, G 2.94
Q5: P 2.39, C 2.04, Y 2.22, N 2.6, D 2.3, H 2.5, L 2.56, S 2.96, G 2.38, A 2.24, F 2.18, E 3.29, K 2.43, R 2.83
K22: P 2.12, T 2.13, I 1.73, R 2.9, Q 1.79, L 2.57, A 2.08, V 1.83, E 1.54, G 2.27, C 2.66, D 2.13, Y 1.98, S 2.73
K10: D 2.49, M 2.9, C 2.25, S 2.02, F 1.98, R 2.78, Y 2.82, H 2.79, G 2.55, I 1.75, P 2.8, N 2.43, W 2.59, Q 2.95
F2: D 3.45, E 3.6, P 3.45, W 2.37, I 2.39, G 2.96, M 2.89, L 3.06, R 3.37, A 3.77, S 4.23, H 3.34, K 3.31, V 2.37, Y 3.32
